Consider one molecule from patent publication US20070135335A1 (AUTOGEN RESEARCH, published 2007).

One series addresses T1, bovine serum albumin (bovine, UniProt P02769 25-607).
T1 construct: Unrelated control protein in SPR
Briefly: SPR (Biacore J), Beacon immobilised on CM5 chip. On the procedure: (§1) SPR analyses were performed with minor variations as described in Walder et al., 2002, supra using a Biacore J instrument (Biacore AB). Beacon was attached to a CM5 sensor chip at pH 5.5 by an amine coupling reaction. HBS-EP (10 mM Hepes pH 7.4/0.15 M NaCl/3 mM EDTA/0.005% Polysorbate 20) was used as running buffer. Flow cells 1 and 2 in the sensor chip were treated in the same manner except that ligand was absent in flow cell 2 which served as a reference cell. Binding experiments were performed in dual channel mode and the reference subtracted sensorgrams represented true binding patterns between ligand and analyte. Test samples diluted to 130 μl in running buffer were injected over a fixed duration of 4 min. For heat treatments, proteins were initially diluted to 20 μl in running buffer, incubated at 65 or 70° C. for 10 min, centrifuged for 30 sec, reconstituted to a final volume of 130 μl with running buffer and injected as usual. Between injections, chips were regenerated using 40 μl of 10 mM NaOH.
(In general: In SPR one partner is held on a chip, and binding of the other changes the refractive index at the surface.)

Another series addresses maltose binding protein (UniProt P0AEX9 27-396 = MBP). Briefly: SPR (Biacore J), Beacon immobilised on CM5 chip. The procedure: as §1
Series [1] addresses T2, GST (recombinant glutathione S-transferase, pGEX2T) (UniProt P08515 1-218 = GST).
T2 construct: Control protein in SPR
In words: SPR (Biacore J), Beacon immobilised on CM5 chip. The procedure: as §1

Series [2] deals with the molecule itself. In words: SPR (Biacore J), Beacon immobilised on CM5 chip. The procedure:
as §1

The target of series [3] is T3, GST-CLK4 (recombinant human CLK4 fused to glutathione S-transferase, pGEX4T-1) (human, UniProt Q9HAZ1 1-481).
T3 construct: Expressed in E. coli BL21; whole entry named; not shown: glutathione S-transferase tag of expression vector pGEX4T-1
In words: SPR (Biacore J), Beacon immobilised on CM5 chip, GST-CLK as analyte. On the procedure: (§2) FIG. 3 is a graphical representation showing the interaction between Beacon and human CLK1, 2 and 4. SPR analyses were performed as described in the Examples. Beacon immobilized on CM5 sensor chip generated 1800-2100 RU. Analyte samples injected and the heat treatments are as listed here:—
as §1

Series [4] concerns the target T4, GST-CLK2 (recombinant human CLK2 fused to glutathione S-transferase, pGEX4T-1) (human, UniProt P49760 1-499).
T4 construct: Expressed in E. coli BL21; whole entry named; not shown: glutathione S-transferase tag of expression vector pGEX4T-1
Described as above. On the procedure: as §2, §1

Series [5] has as its target T5, GST-CLK1 (recombinant human CLK1 fused to glutathione S-transferase, pGEX4T-1) (human, UniProt P49759 1-484).
T5 construct: Expressed in E. coli BL21; whole entry named; not shown: glutathione S-transferase tag of expression vector pGEX4T-1
The series is described as above. The procedure:
as §2, §1

T2 sequence (P08515 whole entry): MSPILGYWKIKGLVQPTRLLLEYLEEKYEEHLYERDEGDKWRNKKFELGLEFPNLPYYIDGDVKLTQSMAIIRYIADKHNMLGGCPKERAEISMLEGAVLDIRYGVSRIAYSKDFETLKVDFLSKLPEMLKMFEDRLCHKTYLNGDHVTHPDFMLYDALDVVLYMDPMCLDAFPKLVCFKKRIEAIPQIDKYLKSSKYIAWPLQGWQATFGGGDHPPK
T1 sequence (P02769 25-607 limits assumed): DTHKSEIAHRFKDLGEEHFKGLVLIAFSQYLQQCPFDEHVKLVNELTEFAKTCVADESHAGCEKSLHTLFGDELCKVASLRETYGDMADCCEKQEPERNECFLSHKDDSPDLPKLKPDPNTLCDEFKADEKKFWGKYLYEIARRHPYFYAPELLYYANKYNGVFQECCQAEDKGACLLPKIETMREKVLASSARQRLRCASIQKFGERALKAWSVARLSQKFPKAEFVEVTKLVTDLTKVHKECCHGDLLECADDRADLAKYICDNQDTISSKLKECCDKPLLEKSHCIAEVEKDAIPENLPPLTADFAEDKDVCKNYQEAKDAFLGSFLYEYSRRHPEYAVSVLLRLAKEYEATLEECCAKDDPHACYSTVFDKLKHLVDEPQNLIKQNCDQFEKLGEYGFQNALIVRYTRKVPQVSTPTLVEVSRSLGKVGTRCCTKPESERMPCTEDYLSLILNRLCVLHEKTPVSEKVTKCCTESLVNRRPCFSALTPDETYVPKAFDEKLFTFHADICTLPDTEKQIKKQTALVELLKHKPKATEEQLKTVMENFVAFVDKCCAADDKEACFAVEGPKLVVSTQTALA
T4 sequence (P49760 whole entry, the tested form may be a part): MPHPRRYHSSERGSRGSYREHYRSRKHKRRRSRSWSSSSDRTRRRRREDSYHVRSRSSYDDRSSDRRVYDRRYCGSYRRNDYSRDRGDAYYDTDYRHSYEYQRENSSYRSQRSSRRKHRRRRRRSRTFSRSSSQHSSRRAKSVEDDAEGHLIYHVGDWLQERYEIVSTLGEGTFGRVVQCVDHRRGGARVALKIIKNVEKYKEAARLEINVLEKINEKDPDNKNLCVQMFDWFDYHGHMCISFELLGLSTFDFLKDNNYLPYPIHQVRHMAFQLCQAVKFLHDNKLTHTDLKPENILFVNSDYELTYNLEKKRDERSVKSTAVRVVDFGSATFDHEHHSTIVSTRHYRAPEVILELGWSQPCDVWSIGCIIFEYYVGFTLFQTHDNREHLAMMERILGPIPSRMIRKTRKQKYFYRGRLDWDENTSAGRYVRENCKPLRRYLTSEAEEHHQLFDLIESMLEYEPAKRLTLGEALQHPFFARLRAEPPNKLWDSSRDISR
T3 sequence (Q9HAZ1 whole entry, the tested form may be a part): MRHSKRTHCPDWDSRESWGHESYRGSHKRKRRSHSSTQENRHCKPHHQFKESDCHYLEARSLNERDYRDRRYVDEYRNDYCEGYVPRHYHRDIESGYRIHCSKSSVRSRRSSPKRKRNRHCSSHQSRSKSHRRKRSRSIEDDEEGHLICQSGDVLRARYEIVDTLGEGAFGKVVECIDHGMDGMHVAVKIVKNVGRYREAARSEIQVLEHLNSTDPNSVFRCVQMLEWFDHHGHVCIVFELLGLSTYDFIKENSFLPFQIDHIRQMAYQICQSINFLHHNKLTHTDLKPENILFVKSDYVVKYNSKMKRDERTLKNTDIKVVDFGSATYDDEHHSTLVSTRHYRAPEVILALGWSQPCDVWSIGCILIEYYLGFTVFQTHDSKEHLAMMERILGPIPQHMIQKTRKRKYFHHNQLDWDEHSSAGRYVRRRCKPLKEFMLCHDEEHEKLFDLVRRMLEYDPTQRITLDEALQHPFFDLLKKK
T5 sequence (P49759 whole entry, the tested form may be a part): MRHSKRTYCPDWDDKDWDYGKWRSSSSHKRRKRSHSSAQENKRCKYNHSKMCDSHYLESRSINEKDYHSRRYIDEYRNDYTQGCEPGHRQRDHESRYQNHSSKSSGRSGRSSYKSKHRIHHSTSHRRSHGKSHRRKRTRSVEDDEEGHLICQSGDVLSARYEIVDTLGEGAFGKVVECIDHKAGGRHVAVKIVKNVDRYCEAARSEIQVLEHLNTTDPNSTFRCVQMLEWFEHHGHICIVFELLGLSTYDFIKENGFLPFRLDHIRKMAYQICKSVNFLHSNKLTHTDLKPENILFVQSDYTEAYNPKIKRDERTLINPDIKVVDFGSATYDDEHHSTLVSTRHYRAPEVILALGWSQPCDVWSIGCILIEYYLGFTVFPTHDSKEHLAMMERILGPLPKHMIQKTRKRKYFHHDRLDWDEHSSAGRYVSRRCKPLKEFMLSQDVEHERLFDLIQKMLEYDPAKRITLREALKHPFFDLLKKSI

B1: Beacon (recombinant, expressed as GST-Beacon in E. coli, GST tag cleaved off with thrombin) (ligand)
chain: MIEVVCNDRLGKKVRVKCNTDDTIGDLKKLIAAQTGTRWNKIVLKKWYTIFKDHVSLGDYEIHDGMNLELYYQ
notes: Immobilised on a CM5 chip by amine coupling (SPR); also injected as analyte over itself
Regarding B1, the binding result is “no binding” in the series with bovine serum albumin; “no binding” in the series with maltose binding protein; “no binding” in series [1]; “no binding” in series [2]; “binds” in series [3]; “binds” in series [4]. Besides, the binding result in series [5] was “binds”.
